Data published in article PMC5216127 (2017).

What was measured:
[1] = molecular target: T1, GST-TCF4 (8–411, deletion 66–325) (human, biotin (only where coated on the streptavidin biosensor, Figure 5e)); assay: BLI
T1 chain: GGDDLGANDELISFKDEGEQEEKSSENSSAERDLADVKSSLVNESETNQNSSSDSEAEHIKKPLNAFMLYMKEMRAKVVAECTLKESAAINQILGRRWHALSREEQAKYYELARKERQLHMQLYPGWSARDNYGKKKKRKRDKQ

[2] = molecular target: T2, GST-tagged TCF4 (amino acids 326–411) (human); assay: BLI
T2 chain: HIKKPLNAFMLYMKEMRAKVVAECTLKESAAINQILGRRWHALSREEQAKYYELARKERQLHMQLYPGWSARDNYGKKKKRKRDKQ

Kd [1]: 132 nM
Kd [2]: 288 nM
B1: TEAD4 (TEA, 38–105) (domain or fragment)
chain: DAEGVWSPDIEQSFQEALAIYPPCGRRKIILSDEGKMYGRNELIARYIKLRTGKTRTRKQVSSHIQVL
